Test results published in patent US20190218308A1 (INNATE PHARMA, published 2019).

What was measured:
[1] = target: T1, human CD39 (NTPDase1, ENTPD1), membrane-bound, on cells (human, UniProt P49961 1-510); test: flow cytometry on Ramos lymphoma cells, second set of experiments
T1 construct: Expressed on CHO cells, Hek-293T cells (wild type) or endogenous on Ramos cells; also called huCD39; CHO-huCD39
T1 sequence: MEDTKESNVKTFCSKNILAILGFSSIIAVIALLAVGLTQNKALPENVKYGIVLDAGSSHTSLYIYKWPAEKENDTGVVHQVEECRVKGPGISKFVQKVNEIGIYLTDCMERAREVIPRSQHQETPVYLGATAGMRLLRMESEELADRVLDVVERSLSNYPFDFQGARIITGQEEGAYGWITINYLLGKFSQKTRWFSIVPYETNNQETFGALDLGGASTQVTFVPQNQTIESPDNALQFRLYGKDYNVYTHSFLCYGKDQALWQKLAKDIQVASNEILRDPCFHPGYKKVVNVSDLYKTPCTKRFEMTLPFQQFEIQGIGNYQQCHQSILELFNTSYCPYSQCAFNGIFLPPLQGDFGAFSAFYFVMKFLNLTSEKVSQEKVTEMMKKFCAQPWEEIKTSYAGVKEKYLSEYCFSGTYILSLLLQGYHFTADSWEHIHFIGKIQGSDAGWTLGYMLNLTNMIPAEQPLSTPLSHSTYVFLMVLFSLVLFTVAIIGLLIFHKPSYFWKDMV
Procedure: (§1) Cells were incubated with various concentration of unlabeled anti-CD39 antibody from 30 μg/ml to 5×10⁻⁴ μg/ml, for 30 minutes at 4° C. After washes, cells were incubated with Goat anti-mouse H+L labeled secondary antibody for 30 min at 4° C.

CD39 mutant 5 = target: T2, CD39 mutant 5 (human, UniProt P49961 1-510); test: flow cytometry, Hek-293T cells transfected with CD39 mutant 5 (panel M5), Comp-Alexa Fluor 647-A
T2 construct: Expressed on Hek-293T cells; also called M5
T2 chain: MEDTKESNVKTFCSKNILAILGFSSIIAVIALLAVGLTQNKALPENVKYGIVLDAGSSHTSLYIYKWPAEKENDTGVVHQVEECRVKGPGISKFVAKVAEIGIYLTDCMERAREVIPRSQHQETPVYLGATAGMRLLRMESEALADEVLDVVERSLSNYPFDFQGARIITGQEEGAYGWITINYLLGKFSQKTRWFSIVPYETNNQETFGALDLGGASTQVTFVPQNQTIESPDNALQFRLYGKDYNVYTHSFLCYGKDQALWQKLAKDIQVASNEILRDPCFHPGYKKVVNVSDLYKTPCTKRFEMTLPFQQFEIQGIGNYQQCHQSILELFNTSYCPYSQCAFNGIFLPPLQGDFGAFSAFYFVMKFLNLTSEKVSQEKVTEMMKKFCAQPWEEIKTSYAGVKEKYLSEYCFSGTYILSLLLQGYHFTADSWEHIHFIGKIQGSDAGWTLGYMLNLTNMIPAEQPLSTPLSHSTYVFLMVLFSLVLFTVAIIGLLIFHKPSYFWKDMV
Procedure: Mutants were transfected in Hek-293T cells, as shown in the table 1, using numbering of SEQ ID NO: 2. […] Mutant 19 includes substitutions at residues R138, M139 and E142.
Mutants were transfected in Hek-293T cells, as shown in the table 1, using numbering of SEQ ID NO: 2. Dose-ranges of test antibodies (10-2.5-0.625-0.1563-0.0391-0.0098-0.0024-0.0006 μg/ml) are tested on the 20 generated mutants by flow cytometry.

[2] = target: T3, Human CD39-L4, also known as NTPDase5 or ENTPD5 (human, UniProt O75356 25-428); test: ELISA on coated recombinant human CD39-L4 (panel huCD39 L4)
T3 construct: Recombinant protein coated in ELISA
T3 sequence: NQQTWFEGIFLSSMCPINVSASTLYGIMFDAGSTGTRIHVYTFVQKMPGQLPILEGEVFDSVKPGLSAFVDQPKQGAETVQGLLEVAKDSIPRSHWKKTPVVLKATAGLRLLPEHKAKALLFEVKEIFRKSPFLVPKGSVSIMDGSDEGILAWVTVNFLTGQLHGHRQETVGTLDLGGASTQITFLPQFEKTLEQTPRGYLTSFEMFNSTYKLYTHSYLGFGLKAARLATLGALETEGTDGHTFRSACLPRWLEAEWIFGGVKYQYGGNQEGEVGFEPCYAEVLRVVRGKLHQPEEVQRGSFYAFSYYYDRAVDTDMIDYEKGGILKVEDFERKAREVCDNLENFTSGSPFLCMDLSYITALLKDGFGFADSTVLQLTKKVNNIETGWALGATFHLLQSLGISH
Procedure: Wells were washed in TBS Tween 20, and further saturated 2H at RT in TBS Blocking buffer. Dose range concentration of primary antibody was incubated in TBS blocking buffer for 2 h at RT. Wells were washed in TBS Tween 20. […] Optical density was measured on Enspire™ at OD=450.

murine CD39 on CHO cells = target: T4, murine CD39 on CHO cells (murine, UniProt P55772 1-510); test: flow cytometry titration on CHO cells expressing murine CD39 (panel CHO-moCD39)
T4 construct: whole, on cells; also called CHO-moCD39; mouse CD39
T4 sequence (looked up): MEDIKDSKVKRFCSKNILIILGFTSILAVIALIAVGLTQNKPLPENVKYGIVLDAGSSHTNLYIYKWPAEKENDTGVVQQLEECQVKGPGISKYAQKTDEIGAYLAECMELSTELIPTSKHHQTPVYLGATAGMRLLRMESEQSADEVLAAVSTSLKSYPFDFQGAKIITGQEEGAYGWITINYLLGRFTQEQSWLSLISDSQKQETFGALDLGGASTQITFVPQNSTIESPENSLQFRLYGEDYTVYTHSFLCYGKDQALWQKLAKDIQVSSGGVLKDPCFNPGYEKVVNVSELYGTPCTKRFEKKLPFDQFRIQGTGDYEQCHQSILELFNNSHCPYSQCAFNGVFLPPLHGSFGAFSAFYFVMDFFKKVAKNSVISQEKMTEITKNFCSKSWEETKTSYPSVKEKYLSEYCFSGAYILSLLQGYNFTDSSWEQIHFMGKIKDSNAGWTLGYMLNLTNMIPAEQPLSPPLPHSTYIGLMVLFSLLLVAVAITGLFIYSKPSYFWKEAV
Procedure: as §1

[3] = target: T1, human CD39 (NTPDase1, ENTPD1), …; test: flow cytometry on Ramos lymphoma cells, first set of experiments
Procedure: as §1

B1: antibody I-394 (antibody, human IgG1, kappa, V domains shown)
VH: EVQLQQSGPELVKPGASVKMSCKASGYTFTDYNMHWVKQSHGRTLEWIGYIVPLNGGSTFNQKFKGRATLTVNTSSRTAYMELRSLTSEDSAAYYCARGGTRFAYWGQGTLVTVSA
VL: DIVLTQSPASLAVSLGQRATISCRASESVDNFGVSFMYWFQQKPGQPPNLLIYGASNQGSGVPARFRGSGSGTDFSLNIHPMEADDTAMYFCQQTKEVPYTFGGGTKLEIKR
Question: For B1, which EC50 [1] is on record?
Answer: 0.19 µg/mL

Question: Does B1 bind (CD39 mutant 5)?
Answer: binds

Question: Does B1 bind [2]?
Answer: no binding (tested: about 50 µg/ml)

Question: Does B1 bind (murine CD39 on CHO cells)?
Answer: no binding (tested: about 30 µg/ml)

Question: And the EC50 [3]?
Answer: 0.16 µg/mL
